Measurements as given in publication doi:10.1101/2022.11.07.515412.
pEC50: −log10 of the molar value. Where “and” joins values, the source holds several entries; their conditions need not be identical. Identical values can stand only once.

Legend:
[1] = target: vinculin D1D4 (residues 1-834) (human) (UniProt P18206); test: SEC-MALS
[2] = target: vinculin D1D2 (residues 1-484) (human) (UniProt P18206); test: SEC-MALS
[3] = target: full-length human vinculin (HV) (human) (UniProt P18206); test: solid-phase binding assay
[4] = target: vinculin D1D2 (residues 1-484) (human) (UniProt P18206); test: native gel or EMSA
[5] = target: vinculin D1 first subdomain (residues 1-257) (human) (UniProt P18206); test: native gel or EMSA
[6] = target: vinculin D1 first subdomain (residues 1-257) (human) (UniProt P18206); test: SEC-MALS
[7] = target: vinculin D1D2 (residues 1-484) (human) (UniProt P18206); test: SEC-MALS; remark: listed apart in the source

stoichiometry N [7] | Substance | stoichiometry N [1] | stoichiometry N [2] | pEC50 [3] | stoichiometry N [4] | stoichiometry N [5] | stoichiometry N (molar ratio, printed as AVBS1-3:D1) [6] | stoichiometry N (D1D2:AVBS1-3 molar ratio) [4] | stoichiometry N ([4]; scale: AVBS1-3 per D1D2)
– | vinculin D1D4 (residues 1-834) (from UniProt P18206 1-834) (domain or fragment) | 2 and 3 | – | – | – | – | – | – | –
– | IpaA derivative containing VBS1-2 (AVBS1-2) (from UniProt P18010 1-633) (domain or fragment) | – | 1 D1D2:AVBS1-2 | 8.43 | 1 D1D2:AVBS1-2 | 1 D1:AVBS1-2 | – | – | –
– | IpaA derivative containing VBS1-3 (AVBS1-3) (from UniProt P18010 1-633) (domain or fragment) | 1 D1D4:AVBS1-3 | – | 8.21 | 1 D1D2:AVBS1-3 | 1 D1:AVBS1-3 | 1 and 2 and 3 | 3 | 2
2 and 3 | vinculin D1D2 (residues 1-484) (from UniProt P18206 1-484) (domain or fragment) | – | 2 | – | – | – | – | – | –
